Data reported in the RNAGym collection of RNA variant scans (doi:10.1073/pnas.2313332121).

B1: TPR t1 (parent)
chain: GACCAAUCUGCCCUCAGAGCUCGAGAACAUCUUCGGAUGCAGAGGAGGCAGGCUUCGGUGGCGCGAUAGCGCCAACGUCCUCAACCUCCAAUGCAUCCCACCACAUGAUGAUGCCUGAAGAGCCUUGGUUUUUUG

Variants of: B1
Assay: polymerase ribozyme fitness, log enrichment relative to wild type (log ratio); higher = more active; in vitro selection for triplet polymerase activity
In short: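 Mutant libraries of both subunits of a heterodimeric triplet polymerase ribozyme were PCR-built, transcribed, and selected once in triplicate, with frozen incubation at −7 °C and capture of gel-excised extended constructs on streptavidin beads before RT-PCR. Illumina sequencing of input and output libraries was filtered to genotypes with ≥10 input reads and ≥1 read per output. Fitness is the logarithm of genotype enrichment over wild-type enrichment, using inverse-variance-weighted replicate averages. The logarithm is base 2.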

Variant | polymerase ribozyme fitness (log ratio)
G63A G69U C79U | -0.72
G63U G77C C86G | -4.32
G63A U131G | -1.53
C64U C86U G110U G122A | -4.18
G63A U96G C124U | 0.174
A66U U78C C124U | 0.592
G63A G107A | -6.55
G63A U81C A90U | -4.66
A66C C94U | -0.92
G63U C89U | -1.85
G63A C115G | -3.51
G63A U78C G113A | -1.96
A66U A83U | -1.4
G63U G128A | -3.29
G63U G69C | -4.76
G69U C104G U133G | -5.17
A66G C82U C88G C124U | -0.202
G69A A84U C94U | -3.36
A68U G117C | -6.92
G69A C73G G120U | -5.64
G63U C102A | -3.78
G69U C104U | 0.349
G69U G110A U125A G127A | -0.849
G63U U87A G122U | -1.97

Variant | polymerase ribozyme fitness (log ratio)
G69C U116C G120C | -0.894
C70A G113A | -2.41
A66U U130G | -1.71
G69U C72A | -2.5
A66G U109A | -6.35
C64U C82U C89A | -1.79
G69A C73U U96G | -3.55
G69C C89G C123A G135U | -4.06
G63U C88A | -1.89
G69A U78C A84C | -3.57
G63A C102U C114A | -6.03
G63U G93U | -1.76
A68G A84G | -3.98
C64U C76A G120U | -5.9
A68U C97A G120C | -6.59
G69C C72U | -0.189
G63A C73A C114G | -5.85
A66U C73A C89U | -1.72
G69C C88A | -2.15
A66C C70A | -3.75
C70A C124U | -0.369
C70A C124A | -0.104
G63C U130C | -1.1
G69U C114A A121G U130G | 0.399

Variant | polymerase ribozyme fitness (log ratio)
G63U C82A C104U A108C | -6.05
G63A G93A | -1.38
C64U A74C | -0.717
A66U C72U C115G | -2.47
A66U C123A | 0.285
G69A G122U | -2.62
G65A C88U | -5.19
C64A U133A | -6.16
G69A G117U C124A | -4.19
G69U U130A | -0.136
G69U U133A | -0.00372
A66U C79U | -0.834
C64U C72U U106G G127C | -2.97
C64U U92C G113A G127U U131C | -3.48
G69U C79U | -0.838
G69C C94A U112G C124G | -1.99
G69A U125A | -3.21
G69U C82A C104U | 0.152
G63A A74U C102U A111U U129G | -5.79
G69U U116A | -1.65
G63A G71A | -2.59
C64U U116G G117C | -2.86
A68G U125A | -3.61
G63A C114U | -2.82

Variant | polymerase ribozyme fitness (log ratio)
A66C A90G C114G | -4.05
G63C C88A | -1.08
G63C C88U | -1.29
G69C C97U | -2.66
G69C C114U | -1.95
C64A U78G | -6.68
C64A U78C | -6.04
C70A C79A A91C G120U | -7.09
G63C G65A G117C A119G A121C | -7.02
G63A U87G A111C | -1.52
G63U C70A G127C | -0.596
G63A G93A C97U U130A | -2.59
G69A G113A G127C | -3.93
C64G C102U C124U | -6.08
A66U A68G C73A C82A | -4.09
G69U U78A A83C C102G | -3.71
G69C C85A | -2.84
G69C C85U | -1.8
G69U A119G | 1.7
G63C U78A G110U | -3.31
G63C C79U G117U | -2.56
G69U C70G U87G G117A | -1.97
A68G G122A | -2.55
G63C C72U G107A C124U | -6.17

Variant | polymerase ribozyme fitness (log ratio)
G69A G127C | -3.47
G69U U81G U116C | -1.49
G69A C86A C99U G110C | -6.84
C64U A95G | -1.52
G63U G77U U78C | -2.41
A68C A84U U112G G117C | -7.28
G69U A121C | 2.82
G69U A121G | 2.47
G69C G113C | -4.05
G63A G128U | -3.07
G69C C101G | -3.84
G63C U78C A105C | -3.52
C70A C79A | -3.11
C64U U78C U96C C124U U126C U133G | -0.424
G63U A90U | -3.53
C64A U78C U81G G120A | -6.42
G69A U78G A118U | -1.62
G63C C85A | -3.22
G63A G93A G120U | -1.07
C64U C73A U131A | -0.288
G63A C73U U130G | -0.938
C70A C94U A100C | -2.44
G69U C115A G120A | 0.825
G69U G110U | 0.852

Variant | polymerase ribozyme fitness (log ratio)
G69U G110C | -2.61
G63A C89G | -2.7
G63A C89U | -1.62
G69U C114U U133A | -1.47
G69A C86G A121U | -1.34
G69A G128C | -5.29
G69U U96G | -0.302
A66U A68G | -3.88
C64U U106C | -0.52
U67C G69A U81C C104A G110C U112C | -8.47
G69A A74G | -5.42
C64U C72U A90C C104A A111G G127A G135A | -4.26
G63A C72G | -3.11
C64U C88U G122A | -0.852
G69U G93U | -1.01
G69U C123A | 1.34
G69U C98U | 0.082
G69A C85A | -4.3
G63U C89A G113A G120C U129G | -5.25
G69A C124A | -0.616
G63A U133A | -0.918
G69U U126G | -0.571
G63A G113A | -1.68
G63A G113U | -2.82

Variant | polymerase ribozyme fitness (log ratio)
G69U U78G C102U | -0.192
G63U U78C A108G | -6.17
G63C G117C C123G | -2.31
U67C C85U | -4.67
G69U U87A G127U U130A G135U | -2.93
C70A C124U U133C | 0.767
G63C A66U G77C A91C C94A | -6.25
G63C G77C | -2.42
G63A U126G | -2.3
G69A G93A A95C A121U | -3.33
U67A G69U | -5.08
C64U G117A | -1.12
G69U C82U | -0.267
G69U C82G | -1.46
G69C G71U C97A A108C U109A | -5.19
C64G U112A U126C | -5.9
G63U C114U | -3.25
G63U C114A | -3.04
C70A G71C | -4.68
G63C U116C | -1.29
G63A U131G G135U | -0.787
A68C U116A A119U C124U | -7.83
G63A G120A | -0.19
